Source: patent publication US20210347867A1

Target: amyloid peptide (not named; Aβ1-42, AβpE3-42 and 4-42 were tested)
Test: SPR (Biacore); reference not named (variants were made to raise the affinity of RHS71/RKA)

- fold improvement on the Biacore: 2 fold
B1: humanized NT4X-167 RHS71/RKH (antibody, V domains shown)
VH: QVQLQESGPGLVKPSETLSLTCTVSGFSLSSYGIHWIRQPPGKGLEWIGVMWSGGITNYYPSLKSRVTISRDTSKNQVSLKLSSVTAADTAVYYCARGSRYALDYWGQGTLVTVSS
VL: DIQMTQSPSSLSASVGDRVTITCRASQDISNYLNWYQQKPGKAPKLLIYYTSRLHSGVPSRFSGSGSGTDFTLTISSLQPEDFATYYCQQGHTLPPTFGGGTKLEIK
